Positions count from the first letter of the chain named. Values belong to the molecule of their own block, whether it stands above or below them.
Experiments:
human monomeric IL-8 = human monomeric IL-8 mediated neutrophil chemotaxis; assay type: cell-based
Protocol: Human neutrophils were isolated, counted and resuspended at 5×10^6 cells/ml in Hank's balanced salt solution (abbreviated HBSS; without calcium and magnesium) with 0.1% bovine serum albumin. The neutrophils were labeled by adding calcein AM (Molecular Probe, Eugene, Oreg.) at a final concentration of 2.0 μM. Following a 30 minute incubation at 37° C., cells were washed twice with HBSS-BSA and resuspended at 5×10^6 cells/ml.
Chemotaxis experiments were carried out in a Neuro Probe (Cabin John, Md.) 96-well chamber, model MBB96. Experimental samples (buffer only control, IL-8 alone or IL-8+Fabs) were loaded in a Polyfiltronics 96-well View plate (Neuro Probe Inc.) placed in the lower chamber. […]
The relative number of neutrophils migrating through the filter (Neutrophil migration index) was determined by measuring fluorescence intensity of the filter and the fluorescence intensity of the contents of the lower chamber and adding the two values together. Fluorescence intensity was measured with a CytoFluor 2300 fluorescent plate reader (Millipore Corp. Bedford, Mass.) configured to read a Corning 96-well plate using the 485-20 nm excitation filter and a 530-25 emission filter, with the sensitivity set at 3.

IL-8 = IL-8 (Homo sapiens, UniProt P10145); assay: KinEXA equilibrium and kinetic measurements; assay type: binding; conditions: read-out: equilibrium constant (Kd)
Protocol: The beads were resuspended in assay buffer (0.1% bovine serum albumin in PBS) to a final volume of 30 ml.
The equilibrium constant (Kd) was calculated using the software provided by Sapidyne Instruments Inc.

Sequence of IL-8 (P10145 28-99 limits assumed): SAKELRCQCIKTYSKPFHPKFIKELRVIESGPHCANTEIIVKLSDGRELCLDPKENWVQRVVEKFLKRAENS

IC50 (human monomeric IL-8): ~15 nM
B1: F(ab)-9: humanized variant, F(ab)-6 with GluH6Gln (protein)
light: DIQMTQSPSSLSASVGDRVTITCRSSQSLVHGIGNTYLHWYQQKPGKAPKLLIYKVSNRFSGVPSRFSGSGSGTDFTLTISSLQPEDFATYYCSQSTHVPLTFGQGTKVEIKRTVAAPSVFIFPPSDEQLKSGTASVVCLLNNFYPREAKVQWKVDNALQSGNSQESVTEQDSKDSTYSLSSTLTLSKADYEKHKVYACEVTHQGLSSPVTKSFNRGEC
heavy: EVQLVQSGGGLVQPGGSLRLSCAASGYSFSSHYMHWVRQAPGKGLEWVGYIDPSNGETTYNQKFKGRFTLSRDNSKNTAYLQMNSLRAEDTAVYYCARGDYRYNGDWFFDVWGQGTLVTVSSASTKGPSVFPLAPSSKSTSGGTAALGCLVKDYFPEPVTVSWNSGALTSGVHTFPAVLQSSGLYSLSSVVTVPSSSLGTQTYICNVNHKPSNTKVDKKVEPKSCDKTHT

Kd (IL-8): ~0.049 nM
B2: 6G4V11N35E IgG1: full length IgG1 version of humanized anti-IL8 variant 6G4V11N35E (protein)
light: B1 light with N35E
heavy: B1 heavy

Source: US6025158A, “Nucleic acids encoding humanized anti-IL-8 monoclonal antibodies” (Genentech, Inc., dated 2000)
